# Assay results from article PMC13065503.
# Molecular target: ArtiMYC (3) (UniProt P01106)
# Assay: EMSA
# Conditions: EMSA: 20 mM HEPES pH 8.0, 150 mM NaCl, 5% glycerol, 1 mM EDTA, 2 mM MgCl2, 0.5 mg/mL BSA, 1 mM DTT, 0.05% NP-40; 4 nM DNA; 30 min RT then 15 min on ice; 10% …
# ArtiMYC (3), sequence (P01106 365-454): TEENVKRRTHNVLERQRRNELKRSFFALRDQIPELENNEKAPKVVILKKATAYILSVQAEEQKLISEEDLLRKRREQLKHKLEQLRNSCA
sequence,measurement,value
ACCCCACCACGTGGTGCCT (double strand) [E-box DNA],Kd,24 nM
